Source: the supplement of paper PMC10567573
± gives the standard deviation.

Assay: protein stability index of a GFP-peptide fusion (GPS, HEK-293T) (PSI 1-6); higher = more stable
Conditions: c terminus: a fixed tail appended
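Further: 24-mer peptide tiles fused after GFP, lentivirally expressed, FACS-sorted into six equal bins by GFP/DsRed ratio, decoded by Illumina sequencing, PSI is the read-weighted mean bin number.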

| Sequence | protein stability index (treatment: DMSO) | protein stability index (treatment: MLN4924 1 uM, 8 h) |
| --- | --- | --- |
| ERREALCRQLSESESSLEMDDERY [CCDC6] | 5.41 ± 0.11 | 5.27 ± 0.16 |
| MASSAAGCVVIVGSGVIGRSWAML [CRYL1] | 3.7 ± 0.13 | 2.89 ± 1.8 |
| VRTAAIKAMLQLHERGLKLHQTIY [INTS4] | 2.58 ± 0.35 | 2.44 ± 0.33 |
| IRLCDMRASALCDRHTKFFEEPED [PPP2R2B] | 3.59 ± 0.11 | 3.77 ± 0.2 |
| IVSQKQIADRAAHDESPGNNVVDI [RAB11B] | 5.16 ± 0.12 | 5.12 ± 0.1 |
| ALGWAPAAPPPLKDDPEGDRDGCV [ZBED3] | 5.34 ± 0.17 | 5.54 ± 0.3 |
| SEEYQQAQHKFLVAVESMEPNNIV [TCF25] | 4.26 ± 0.22 | 4.29 ± 0.15 |
| LKVGGILVMPIEDQLTQIMRTGQN [PCMTD1] | 2.66 ± 0.12 | 2.24 ± 0.22 |
| KVSGNRCASPVTGPGSKRDAHFCA [ESR2] | 2.76 ± 0.44 | 2.79 ± 0.16 |
| SRVNNASYCPHCGEESSKAKEVTI [EHMT1] | 3.39 ± 0.14 | 3.37 ± 0.32 |
| AVIYLGYCFCGWIVLGPYHVKFRS [MCOLN1] | 3.08 ± 1.1 | 2.86 ± 0.52 |
| IDCKFNAESQGCNHEEDAGVRCNT [LOXL2] | 5.13 ± 0.22 | 5.22 ± 0.1 |
| SNVGTAISKKFGDMSYSIRHSISM [TPD52L1] | 2.19 ± 0.49 | 2.26 ± 0.45 |
| RCRQSLEDSESLRIKEVEHMTRHL [LRRC45] | 3.42 ± 0.14 | 3.46 ± 0.17 |
| VEISRRLRHSNPRADPLVCATGLL [SPNS1] | 2.22 ± 0.11 | 2.31 ± 0.32 |
| LTFHRHPVAQSTDGIRGKVGHARG [SPSB4] | 3.99 ± 0.32 | 3.97 ± 0.26 |
| RASRLQAPVLVAAPHSTFFDPIVL [LPCAT4] | 2.6 ± 0.31 | 2.71 ± 0.2 |
| RGIDIIKWMERYLRDKTVMIIVAI [TRAF3IP2] | 2.25 ± 0.31 | 2.33 ± 0.42 |
| RQIQEEEDEKQRLQNEVRQLTEKL [SSNA1] | 4.98 ± 0.19 | 5.04 ± 0.21 |
| LTEHQRIHTGIKPHQCSECGRAFS [ZNF649] | 3.58 ± 0.064 | 3.69 ± 0.38 |
| SRTVRQFQFTDWPEQGVPKSGEGF [PTPRD] | 3.88 ± 0.25 | 4.02 ± 0.68 |
| GSGFGGGYGGGLGAGFGGGLGAGF [KRT16] | 2.27 ± 0.25 | 2.54 ± 0.67 |
| PSPAPAVAAAAAATTAATAAATTT [SNAP91] | 5.33 ± 0.31 | 5.39 ± 0.17 |

| Sequence | protein stability index (treatment: DMSO) | protein stability index (treatment: MLN4924 1 uM, 8 h) |
| --- | --- | --- |
| YPPFWDEDQHKLYQQIKAGAYDFP [CAMK2B] | 2.85 ± 0.35 | 3.11 ± 0.056 |
| KLASHTRDTTGVSQMFPSSKARTK [FBF1] | 4.39 ± 0.16 | 4.58 ± 0.053 |
| TPSVPPPASQHSTPAGLPPSRAKP [FBF1] | 5.3 ± 0.25 | 5.22 ± 0.23 |
| PGSSSGPVLGSSSGAGHGSGSGSG [SPAG8] | 4.87 ± 0.29 | 5.14 ± 0.18 |
| ENLIMFQNLANEEVRKLTQRLEEM [MATN2] | 3.58 ± 0.094 | 3.17 ± 0.47 |
| TLNKCAVMKLEISPHRKRSDDSDE [DLC1] | 4.11 ± 0.31 | 4.29 ± 0.094 |
| AQAGTPAPTKPHDYRQEQPETFWI [SPAG8] | 3.54 ± 0.29 | 3.59 ± 0.29 |
| DQIGSEIIEELGEQRDQLERTKSR [VTI1B] | 5.53 ± 0.24 | 5.47 ± 0.37 |
| VLDLRKNSHQDFWTVWSGNRASLY [PRAME] | 2.19 ± 0.3 | 2.3 ± 0.19 |
| MEEFRRSYSRLCRESGAEPQEAVL [LRRC45] | 3.77 ± 0.22 | 3.84 ± 0.27 |
| CYLSFPDSNSGCLGDTQFCFRFRQ [DENND6A] | 2.25 ± 0.28 | 2.4 ± 0.63 |
| FMHSFEEKYGRAHPVFYQGTYSQA [FAF2] | 2.18 ± 0.21 | 2.42 ± 0.28 |
| DKYCPLLIKEGGMPLLRDIIKMAT [ZER1] | 2.46 ± 0.3 | 2.22 ± 0.31 |
| PSNKAPLLVLCEDHRGRMVKHQCC [EHMT1] | 3.13 ± 0.27 | 3.37 ± 0.34 |
| KCGIHSMFPLHLAALNAHSDCCRK [ANKRD44] | 2.36 ± 0.2 | 2.62 ± 0.33 |
| NNLAASQLKLDHYRAALRSCSLVL [FKBP8] | 2.62 ± 0.11 | 2.35 ± 0.27 |
| SEDVNWGYEKRNLARVPKLDLKRQ [CHGB] | 4.34 ± 0.3 | 4.27 ± 0.25 |
| ALCVVDTIKRSSQTGEWQNIAIMT [GFOD1] | 2.31 ± 0.24 | 2.2 ± 0.14 |
| VISVVSYLILALLSVTISFRIYKS [RTN3] | 3.21 ± 0.65 | 2.8 ± 0.29 |
| FRRTDGRCLIWGRKPKVIECSYTS [DHCR7] | 2.35 ± 0.17 | 2.34 ± 0.33 |
| TSEKLGEWNEKVTQSDLYKKTQET [TPD52L2] | 5.13 ± 0.28 | 5.1 ± 0.063 |
| AHRGRLNIQAGINENDFYDGAWCA [CPXM2] | 3.34 ± 0.86 | 3.29 ± 0.46 |
| AHEVLQELRDISSMAMEYFDEKIV [FBXO28] | 3.14 ± 0.19 | 3.26 ± 0.45 |

| Sequence | protein stability index (treatment: DMSO) | protein stability index (treatment: MLN4924 1 uM, 8 h) |
| --- | --- | --- |
| NETVNSIFAQGAPRSSLAESFFVD [ADAMTSL2] | 3.77 ± 0.086 | 3.86 ± 0.073 |
| DQTALSLEECLRLLEATCPFGENA [NFE2L1] | 3.31 ± 0.72 | 3.8 ± 0.74 |
| LTASGDGTCALWDVESGQLLQSFH [GNB5] | 2.67 ± 0.36 | 2.76 ± 0.24 |
| QPASELLQDVRVNQSRCEMKTFVS [TRIM15] | 2.98 ± 0.48 | 3.25 ± 0.41 |
| HSCVQIKNDVFICGGYNGEVILGD [KLHDC10] | 1.94 ± 0.27 | 2.62 ± 0.42 |
| RTHGDMHSLVRSRHRIPEPEAAVL [TRIB3] | 3.8 ± 0.11 | 3.91 ± 0.086 |
| ERTRKPYNNDIDYYAKRNALRAAE [GALNT9] | 4.1 ± 0.13 | 4.26 ± 0.24 |
| IDFIGQVHKTKEQFGQDGPISVHC [PTPRD] | 2.5 ± 0.26 | 2.81 ± 0.22 |
| EIPLVIKYKKAVGLKLKQEKKEAY [WDR88] | 2.88 ± 0.32 | 2.56 ± 0.13 |
| QYQLLRCNVDLLKIIQLGLTFMNE [CNOT7] | 2.73 ± 1.8 | 2.86 ± 0.42 |
| LSSVPSEAQISDPFAPEPTPPTTT [SNAP91] | 5.38 ± 0.079 | 5.3 ± 0.2 |
| YLRDSSPAPCADGPAGGLADLSSG [PWWP2B] | 4.78 ± 0.2 | 4.8 ± 0.11 |
| LHSEFDEQHGKKVPTVSRPYSFIE [SEC22B] | 4.04 ± 0.13 | 4.14 ± 0.24 |
| LKRKNKQAFLDELESSDLPVALLL [MNAT1] | 2.2 ± 0.42 | 2 ± 0.3 |
| TNTRRGSRAPCKVQGLEGIKMAMV [NEK8] | 2.32 ± 0.25 | 2.32 ± 0.23 |
| GPLPQSFDKEWVAKQTKRMLDMKV [COX4I1] | 3.86 ± 0.15 | 3.86 ± 0.31 |
| QETRGELQCRSPPRLHGAKAILDA [TBC1D10A] | 4.55 ± 0.27 | 4.62 ± 0.12 |
| FFEDGDVQRHLYLQDVIMQVADVP [ZNF511] | 2.82 ± 0.29 | 2.81 ± 0.43 |
| NAAHLGDKRRDLAHLAAEVEGKCL [TRIM39] | 4.46 ± 0.22 | 4.5 ± 0.16 |
| KDVKERFSGSLVAALSATGPRFLA [TMEM175] | 2.88 ± 0.55 | 2.73 ± 0.68 |
| WEELLTMKVEAKSHLQWQESRLKR [ZSCAN9] | 3.65 ± 0.18 | 3.59 ± 0.37 |
| VFPPEVPISEKAKDLILRFCIDSE [STK38L] | 3.06 ± 0.35 | 3.32 ± 0.42 |
| QNDNAPEILYPALPTDGSTGVELA [PCDHGA10] | 4.84 ± 0.39 | 5.2 ± 0.18 |

| Sequence | protein stability index (treatment: DMSO) | protein stability index (treatment: MLN4924 1 uM, 8 h) |
| --- | --- | --- |
| QWTVGKLNCPFCGARLGGFNFVST [RNF180] | 2.46 ± 0.39 | 2.65 ± 0.54 |
| LDPVAETAIRQLTEPSGRVAKKTP [C2CD2L] | 5.66 ± 0.17 | 5.18 ± 0.47 |
| GWFWVCPGGGDICMYRHALPPGFV [ZC3H15] | 2.83 ± 2.2 | 2.57 ± 0.8 |
| FTSPDYQQQCHEMAERLEDSVLKG [SDE2] | 3.01 ± 0.59 | 3.62 ± 0.7 |
| TSIEPSKSSIIPFRALKRPLQFLG [ZER1] | 2.42 ± 0.38 | 2.22 ± 0.16 |
| RGRFTTYEIRVKTNLPIFKLKEST [SNX3] | 2.54 ± 0.98 | 2.47 ± 0.57 |
| IREQIKKYRRHFLRFCHNNKKAKR [EIF5] | 2.35 ± 0.19 | 2.33 ± 0.16 |
| FLDLVKPEPVYKLTQRQVNITVQK [HACD3] | 2.56 ± 0.14 | 2.79 ± 0.44 |
| YRFASAGDDGIVVVWNAQTGEKLL [WDR41] | 2.43 ± 0.17 | 2.75 ± 0.1 |
| YVRDRADLNKDKPVIPAAALAGYT [ETS1] | 2.44 ± 0.6 | 3.35 ± 0.78 |
| SQTDRGASAGKRRCFWLGMEGLET [SDE2] | 2.87 ± 0.45 | 2.96 ± 0.14 |
| AGLGPGSRRPLDEAVAGAEGREAP [DENND6A] | 5.39 ± 0.23 | 5.04 ± 0.39 |
| SSKSRAAPSPQEALVRLRETEEML [CHMP4C] | 2.79 ± 0.58 | 3.45 ± 0.81 |
| QAWFGFAGTPGYLSPEVLRKDPYG [CAMK2D] | 2.86 ± 0.79 | 2.94 ± 0.39 |
| LYVSGLPKTMSQKEMEQLFSQYGR [ELAVL3] | 2.55 ± 0.14 | 2.66 ± 0.39 |
| MALTPVVVTLWYRAPEVLLQSTYA [CDK4] | 3.04 ± 0.41 | 3.06 ± 0.45 |
| PEKIGTRFLLYTNENPNNFQILLL [PNLIPRP1] | 2.26 ± 0.46 | 2.48 ± 0.46 |
| QSLNDRLASYLDRVRSLETENRRL [KRT18] | 3.65 ± 0.044 | 3.67 ± 0.23 |
| AGAGWWVGAAYASLRRRGASAAAR [TRIM14] | 2.88 ± 0.22 |  |
| PSLGRVLPDPREACGSSSYVASIV [RBMY1A1] | 2.63 ± 0.36 | 2.94 ± 0.21 |
